One data set addresses T1, NsLOX (Nostoc sphaeroides, UniProt A0A5P8W1C8).
T1 construct: gene GXM_03308; full length, 455 residues (52 kDa) plus 2 kDa His tag from pET-28a(+) NdeI/XhoI, tag kept; codon-optimised synthetic gene; E. coli BL21(DE3); Ni-NTA; about 54 kDa; C-terminal Ile455; no N-terminal PLAT domain
T1 sequence (A0A5P8W1C8 1-455): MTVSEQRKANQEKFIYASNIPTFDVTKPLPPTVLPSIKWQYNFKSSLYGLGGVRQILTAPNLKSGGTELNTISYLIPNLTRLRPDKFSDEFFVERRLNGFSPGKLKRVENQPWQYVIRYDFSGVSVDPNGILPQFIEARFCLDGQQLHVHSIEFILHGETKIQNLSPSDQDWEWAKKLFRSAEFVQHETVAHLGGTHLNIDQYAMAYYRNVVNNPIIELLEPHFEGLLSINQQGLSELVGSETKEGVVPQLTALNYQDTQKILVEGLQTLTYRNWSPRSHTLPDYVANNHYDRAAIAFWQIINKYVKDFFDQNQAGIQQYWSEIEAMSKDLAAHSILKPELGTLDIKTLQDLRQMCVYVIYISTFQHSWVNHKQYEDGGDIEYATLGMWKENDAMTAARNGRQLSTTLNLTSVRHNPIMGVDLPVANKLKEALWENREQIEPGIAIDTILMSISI
Put plainly: absorbance at […] nm, Lineweaver-Burk. Particulars: optimum assay conditions: 20 mM Tris-HCl pH 8.0, 15 °C, substrate 20-100 μM. It is filed as biochemical.

Substrate in the data set “purified protein”: CCCCC/C=C\C/C=C\C/C=C\C/C=C\CCCC(=O)O
Put plainly: purified protein. It is filed as biochemical, Nostoc sphaeroides. The settings on record: optimum assay conditions: 20 mM Tris-HCl pH 8.0, 15 °C, substrate 20-100 μM.

Three molecules from publication PMC10177866, “Computational Insights and In Silico Characterization of a Novel Mini-Lipoxygenase from Nostoc Sphaeroides and Its Application in the Quality Improvement of Steamed Bread” (International Journal of Molecular Sciences, 2023) can be followed below.

In the case of `CCCCC/C=C\C/C=C\CCCCCCCC(=O)O` [LA, Linoleic acid], the Km (commonly the substrate concentration at which the rate is half of its maximum) on NsLOX was 19.5 ± 1.24 µM.
On to `CC/C=C\C/C=C\C/C=C\CCCCCCCC(=O)O` [ALA, α-Linolenic acid], for which the Km on NsLOX (Km above tested substrate range) worked out at 151 ± 6.39 µM.

B1: NsLOX (Nostoc sphaeroides CCNUC1) (protein)
chain: MTVSEQRKANQEKFIYASNIPTFDVTKPLPPTVLPSIKWQYNFKSSLYGLGGVRQILTAPNLKSGGTELNTISYLIPNLTRLRPDKFSDEFFVERRLNGFSPGKLKRVENQPWQYVIRYDFSGVSVDPNGILPQFIEARFCLDGQQLHVHSIEFILHGETKIQNLSPSDQDWEWAKKLFRSAEFVQHETVAHLGGTHLNIDQYAMAYYRNVVNNPIIELLEPHFEGLLSINQQGLSELVGSETKEGVVPQLTALNYQDTQKILVEGLQTLTYRNWSPRSHTLPDYVANNHYDRAAIAFWQIINKYVKDFFDQNQAGIQQYWSEIEAMSKDLAAHSILKPELGTLDIKTLQDLRQMCVYVIYISTFQHSWVNHKQYEDGGDIEYATLGMWKENDAMTAARNGRQLSTTLNLTSVRHNPIMGVDLPVANKLKEALWENREQIEPGIAIDTILMSISI
notes: full length, 455 residues (52 kDa) plus 2 kDa His tag from pET-28a(+) NdeI/XhoI, tag kept; codon-optimised synthetic gene; E. coli BL21(DE3); Ni-NTA; about 54 kDa; C-terminal Ile455; no N-terminal PLAT domain
Take B1: in the data set “purified protein”, the Km is 571.22 ± 26.88 µM; the Vmax – broadly, the top rate of the reaction or transport when substrate is in excess – came to 30.6 µM/min; the kcat (usually the number of substrate molecules converted per active site and unit of time at saturation) amounted to 7300 ± 145 s⁻¹; the kcat/Km (as a rule, the turnover number divided by the Michaelis constant) was found to be 1.28e+07 M⁻¹ s⁻¹.
